From publication PMC3936849, “MB109 as bioactive human bone morphogenetic protein-9 refolded and purified from E. coli inclusion bodies” (Microbial Cell Factories, 2014)

Biological target: the molecule itself
Assay: non-reduced SDS-PAGE; SEC-purified denatured monomeric MB109 refolded by rapid dilution (CHAPS, NaCl, EDTA, GSH/GSSG, Tris-HCl, 4°C, 7 days); supernatants run on non-reduced 12% SDS-PAGE; disulfide-linked dimer

B1: MB109 (E. coli-derived mature domain of human bone morphogenetic protein-9, refolded functional dimer) (ligand)
chain: MSAGAGSHCQKTSLRVNFEDIGWDSWIIAPKEYEAYECKGGCFFPLADDVTPTKHAIVQTLVHLKFPTKVGKACCVPTKLSPISVLYKDDMGVPTLKYHYEGMSVAECGCR
notes: engineered first methionine (translational start) directly before Ser320; mature domain of human BMP-9, Ser320-Arg429 (110 amino acids) of the 429-residue polypeptide; Disulfide-linked homodimer of the mature domain; pET21a between NdeI and XhoI with a 3' stop codon; also called hBMP-9 mature domain; human BMP-9
- stoichiometry N: 2
